# Assay results: the nanobody polyreactivity screen of Harvey et al. (2022)
# Assay: yeast display, Sf9 membrane polyspecificity reagent, FACS + sequencing; frameworks hold sequencing errors
# Outline: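 Sorting gates, low and high (top ~1%), were placed on anti-HA fluorescence to track expression and on streptavidin fluorescence to track reagent binding. A clone's polyreactivity label is taken from the gate it came out of. The reagent was 10% biotinylated, detergent-solubilized Sf9 membrane, applied for 1 hour at 4 °C to galactose-induced yeast display cells.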
row,Sequence,polyreactivity (PSR sort gate)
1,QVQLVESGGGLVQAGGSLRLTCAASGFIFAHYAMGWYRQAPGKERELVAAISSRGGSTYYADSVKGRFTISRDNAKNTVYLQMNSLKPEDTAVYYCAKARHRPARGYEYWGQGTQVTVSS,high polyreactivity
2,QVQLVESGGGLVQAGGSLRLTCAASGFIFGSYSMGWYRQAPGKERELVAAITSGGSTYYADSVKGRFTISRDNAKNTVYLQMNSLKPEDTAVYYCAKYHWRLSFSRYPYDYWGQGTQVTVSS,high polyreactivity
3,QVQLVESGGGLVQAGGSLRLTCAASGFIFNFYAMGWYRQAPGKERELVAAISRNGGSTYYADSVKGRFTISRDNAKNTVYLQMNSLKPEDTAVYYCNAGGSYGDFGYWGKGTQVTVSS,high polyreactivity
4,QVQLVESGGGLVQAGGSLRLTCAASGFTFDRYAMGWYRQAPGKEREVVAAISRSGTSTYYADSVKGRFTISRDNAKNTVYLQMNSLKPEDTAVYYCATRYNVYFPSRRYQYDYWGQGSQVTVSS,high polyreactivity
5,QVQLVESGGGLVQAGGSLRLTCAASGFTFRYYAMGWSRQAPGKERELVATISTGSGVSTYYADSVKGRFTISRDNAKNTVYLQMNSLKPEDTAVYYCAAVFGWRRYVTYDYWGQGTQVTVSS,low polyreactivity
6,QVQLVESGGGLVQAGGSLRLTCAASGGTFIKNAMGWYRQAPGKERELVAAISWSGGRTYYADSVKGRFTITRDNPKNTVYLPMNSLKPEDTAVYYCNARYAGRLSYSYEYWGQVTQVTVSS,high polyreactivity
7,QVQLVESGGGLVQAGGSLRLTCAASGIIFCDYVMGWYRQEPGKESELVAAISASGGRTYYADSVKGRFTISRDNAKNTVYLQMTSLKPEDTAVYYCNKRYRNRYSYSEGDYWGQGTQLTVSS,high polyreactivity
8,QVQLVESGGGLVQAGGSLRLTCAASGIIFDDYAMGWYRQAPGKERELVAAISWIGTTTYYADSVKGRFTISRDNAKKTVYFQMNILKPEDTAVYYCNARPYPSYKYDYWGQGTQVTVSS,high polyreactivity
9,QVQLVESGGGLVQAGGSLRLTCAASGIIFFKNAMGWYRQAPGKERELVASINRSGGSTYYADSVKGRFTISRDNAKNTGYFQMNSLKPEDTAVFYCNARLTLRSYDYWGLGTQVTVSS,low polyreactivity
10,QVQLVESGGGLVQAGGSLRLTCAASGIIFGHYAMGWYRQAPGKERELVAAITASSGNTYYADSVKGRFTISRDNAKNTVYLQMNSLKPEDTAVYYCAAVSYSSYRYDYWGQGTQVTVSS,high polyreactivity
11,QVQLVESGGGLVQAGGSLRLTCAASGIIFYGYAIGWYRQAPGKERQLVAAISSGGGTNYADSVKGRFTISRDNAKNTVYLQMNSLKPEDTAVYYCAARQYRRVKQGNYWGQGTQVTLSS,high polyreactivity
12,QVQLVESGGGLVQAGGSLRLTCAASGIIFYIYAMGWYRQAPGKERELVAGISWRGGSTSYADSVKGRFTISRDNAKNTVYLQMNSLKPEDTAVYYCAAEVYSWDGYDYWGQGTQVTVSS,low polyreactivity
13,QVQLVESGGGLVQAGGSLRLTCAASGITFQYYVMGWYRHAPGKERELVAAITRRGGSTYYADSVKGRFTISRDNAKNTVYLQMNSLKPEDTAVYYCAAAITYLPAYRYNYWGQGTQVTVSS,high polyreactivity
14,QVQLVESGGGLVQAGGSLRLTCAASGLIFAENAMGWYRQAPGKERELVASITKSGGRTYYADSVKGRFTISRDNAKNTVYLQMNSLKPEDTAVYDCAAISYFPLRTRYERWFYYWGQGTQVTVSS,high polyreactivity
15,QVQLVESGGGLVQAGGSLRLTCAASGLTFFYYAMGWYRQAPGKERELVAGISRSGGSTYYADSVKGRFTISRDYAKNTVYLQMNSLKPEDTAVYYCAKRTLVASYIYREGEYWGQGTQVTVSS,high polyreactivity
16,QVQLVESGGGLVQAGGSLRLTCAASGLTFPVYAKGWYRQAPGKEREFVAAISYSAGRTYYADSVKGRFTISRDNAKNTVYLQMNRLKPEDTAVYYCAAATYYSIYDYWGQGTQVTVSS,high polyreactivity
